B1: VG9B387 (antibody, human IgG1, lambda, V domains shown)
VH: EVQLVESGAEVKKPGASVKVSCKASGFTFTGYYLQWVRQAPGQGLEWMGWINPNSGYTDYAQRFQDRVTMTRDTSINTAYMELSRLRSDDTAVYYCARLDDAFDVWGQGTMVTVSS
VL: SYELTQDPAVSVALGQTVRITCQGDSLRNYYAIWYQQKPGQAPVLVIFGKNNRPSGIPDRFSGSSSGTTASLTITGTQAEDEADYYCNSRDSSGNHWVFGGGTKLTVLG
notes: IgG1, lambda; specificity column: g/d constant
B2: VG9B392 (antibody, human IgG1, lambda, V domains shown)
VH: QVQLVQSGAEVKRPGASAKVSCKTSGYTFTGYYIHWVRQAPGQGLEWMGWINPNSGYTNSAQKFQGRVSMTRDTSISTVYMELSRLRSDDTAVYYCAREDDAFDIWGQGTLVTVSS
VL: SSELTQDPAVSVALGQTVRITCQGDSLRSYYARWYQQKPGQAPVLVIYGKNNRPSGIPDRFSGSSSGDTASLTITGALAEDEADYYCNSRDNSGNHVVFGGGTKVTVLG
notes: as for B1
B3: VG9B379 (antibody, human IgG1, lambda, V domains shown)
VH: EVQLVQSGPEVKKPGASVKVSCKASGYTFTGDYIHWVRQVPGQGLEWMGWINPNSGGTNYAQKFQGRVTMTRDTSISTAFMELSRLRSDDTAVYYCAREGGVAPAAPDAFDIWGQGTMVTVSS
VL: SSELTQDPAVSVALGQTVRITCQGDSLRSYYARWYQQKPGQAPVVVIYGKNNRPSGIPDRFSGSSSGNTASLTITGAQAEDEADYYCNSRDSSGNHRVFGGGTKLTVLG
notes: as for B1
B4: VG9B447 (antibody, human IgG1, lambda)
heavy: not shown
light: SYELTQPASVSGSPGQSITISCTGTSSDVGGYNYVSWYQQHPGKAPKLMIYEVSNRPSGVSNRFSGSKSGNTASLTISGLQAEDEADYYCSSYTSTSVVFGGGTKLTVLGQPKAAPSVTLFPPSSEELQANKATLVCLISDFYPGAVTVAWKADSSPVKAGVETTTPSKQSNNKYAASSYLSLTPEQWKSHRSYSCQVTHEGSTVEKTVAPTECS
notes: as for B1
B5: VG9B47 (antibody, human IgG1, kappa, V domains shown)
VH: QVQLVQSGAEVKKPGSSVKVSCKASGGSFSNYAISWMRQAPGQGLEWMGGIIPFFGTPDYAQKFQGRVTITADKSTSTAYMELSSLRSEDTAVYYCSTGGGYGDYDYYYGINVWGQGTMVTVSS
VL: DIVMTQSPLSSPVDLGQPASISCRSSQSLVHSDGNTYLSWLQQRPGQPPRLLIYKISNRFSGVPDRFSGSGAGTDFTLKISRVEAEDVGVYYCMQAKEFPLTLGGGTKVDIKR
notes: IgG1, kappa; specificity column: g/d constant
B6: VG9B96 (antibody, human IgG1, kappa, V domains shown)
VH: EVQLVQSGAEVKKPGSSVKVSCKASGGTFSNYAISWVRLAPGQGLEWMGGIIPIFSAGTYAQRFQGRVTITADKSTSTAYMELNSLRSEDTAVYYCSSNSGTYYDYYYGMDVWGQGTMVTVSS
VL: DIVMTQSPLSSHVTLGQPASISCRSSQSLVHSDGNTYLSWLQQRPGQPPRLLIYKIFNRLSGVPDRFSGSGAGTDFTLKISRVEAEDVGVYYCMQAKQFPLTFGGGTKVEIKR
notes: as for B5
B7: VG9B77 (antibody, human IgG1, kappa, V domains shown)
VH: EVQLVESGAEVMKPGSSVKVSCKASGGTFSSYAISWVRQAPEQGLEWMGGIIPFFGTADYAQKFQGRVTITADKSTNTAYMELTSLRSEDTAVYYCATATVTTDYYYGMDVWGQGTMVTVSS
VL: EIVMTQSPLFSPVTLGQPASISCRSSQSLVHSDGNTYLSWLQQRPGQPPRLLIYEISNRFTGVPDRFSGSGAGTDFTLKISRVEAEDVGVYYCMQARQFPLTFGGGTKVEIKR
notes: as for B5
B8: VG9B472 (antibody, human IgG1, kappa, V domains shown)
VH: QVQLVESGGGLVKPGGSLRLSCAASGFTFSHYDMNWVRQAPGKGLEWVSSISSSSSYIFYADSVKGRFTISRDNAKNSLLLQMNSLRAEDTAVYHCARDRGVGDTSDYYSFGLDVWGQGTTVTVSS
VL: EIVLTQSPSSLSASVGDRVTITCRASQGIATYLAWYQQKPGKVPNLLIYAASTLQSGVPSRFSGSGSGTDFTLTISSLQPEDVATYYCQKYNSAPPWTFGQGTKVEIKR
notes: IgG1, kappa; also called antibody #33
B9: VG9B58 (antibody, human IgG1, kappa, V domains shown)
VH: QVQLQESGPGLVKPSETLSLTCTVSGGSIKSSYWTWIRQPPGKGLEWIGYMFYLGSTNYNPSLKSRVTMSIDTSRNQFSLKLSSVTAADTAVYYCSRERPVLDAFDIWGQGTMVTVSS
VL: DIQMTQSPSAMSASVGDRVTITCRASQDITNYLAWFQQKPGKVPKRLIYAASSLQGGVPSRFSGSGSGTEFTLTISSLQPEDFSTYYCLQHDTYPYTFGQGTKVDIKR
notes: IgG1, kappa; also called antibody #28
B10: VG9B384 (antibody, human IgG1, lambda, V domains shown)
VH: QVQLQESGPALVKPTQTLTLTCTFSGFSLSSSGMCVSWIRQPPGKALEWLTLIDWFDDKYYSTSLKTRLTISKDTSKNQVVLTMTNMDPVDTATYYCARIRGTGAYYYGLDVWGQGTMVTVSS
VL: SYELMQPPSVSVSPGQTASITCSGNELGDKYASWYQQQPGQSPVLVIYQDNKRPSGIPERFSGSNSGNTATLTISGTQAMDEADYYCQAWDSSKVVFGGGTKLTVLG
notes: IgG1, lambda; also called antibody #36
B11: VG9B417 (antibody, human IgG1, kappa)
heavy: not shown
light: DIVMTQSPSSVSASVGDRVTITCRASQGINSWLAWYQQKPGNAPKLLIYAASSLQSGVPSRFSGIGSGTDFIFTISSLQPEDFASYYCQQANSFPWTFGQGTKVEIKRTVAAPSVFIFPPSDEQLKSGTASVVCLLNNFYPREAKVQWKVDNALQSGNSQESVTEQDSKDSTYSLSSTLTLSKADYEKHKVYACEVTHQGLSSPVTKSFNRGEC
notes: IgG1, kappa; also called antibody #27
B12: VG9B428 (antibody, human IgG1, kappa)
heavy: not shown
light: EIVMTQSPSSVSASVGDRVTITCRASQGINSWLAWYQQKPGNAPKLLIYAASSLQSGVPSRFSGIGSGTDFIFTISSLQPEDFASYYCQQANSFPWTFGQGTKVEIKRTVAAPSVFIFPPSDEQLKSGTASVVCLLNNFYPREAKVQWKVDNALQSGNSQESVTEQDSKDSTYSLSSTLTLSKADYEKHKVYACEVTHQGLSSPVTKSFNRGEC
notes: IgG1, kappa; also called antibody #18
B13: VG9B421 (antibody, human IgG1, kappa)
heavy: not shown
light: DIQMTQSPSSVSASVGDRVTITCRASQGINSWLAWYQQKPGNAPKLLIYAASSLQSGVPSRFSGIGSGTDFIFTISSLQPEDFASYYCQQANSFPWTFGQGTRLEIKRTVAAPSVFIFPPSDEQLKSGTASVVCLLNNFYPREAKVQWKVDNALQSGNSQESVTEQDSKDSTYSLSSTLTLSKADYEKHKVYACEVTHQGLSSPVTKSFNRGEC
notes: IgG1, kappa; also called antibody #34
B14: VG9B419 (antibody, human IgG1, kappa)
heavy: not shown
light: EIVLTQSPGTLSLSPGDRATLSCRASQSVASSYLAWYQQKPGQSPRLLIYGASSRATGIPDRFSGSGSGTDFTLTISRLEPEDFAVYYCQQYGSSPPYTFGQGTKVEIKRTVAAPSVFIFPPSDEQLKSGTASVVCLLNNFYPREAKVQWKVDNALQSGNSQESVTEQDSKDSTYSLSSTLTLSKADYEKHKVYACEVTHQGLSSPVTKSFNRGEC
notes: IgG1, kappa; also called antibody #29
B15: VG9B418 (antibody, human IgG1, kappa)
heavy: not shown
light: EIVLTQSPGTLSLSPGDRATLSCRASQSVASSYLAWYQQKPGQSPRLLIYGASSRATGIPDRFSGSGSGTDFTLTISRLEPEDFAVYYCQQYGSSPPYTFGQGTKLEIKRTVAAPSVFIFPPSDEQLKSGTASVVCLLNNFYPREAKVQWKVDNALQSGNSQESVTEQDSKDSTYSLSSTLTLSKADYEKHKVYACEVTHQGLSSPVTKSFNRGEC
notes: IgG1, kappa; also called antibody #32
B16: VG9B413 (antibody, human IgG1, kappa)
heavy: not shown
light: EIVMTQSPGTLSLSPGDRATLSCRASQSVASSYLAWYQQKPGQSPRLLIYGASSRATGIPDRFSGSGSGTDFTLTISRLEPEDFAVYYCQQYGSSPPYTFGQGTKVEIKRTVAAPSVFIFPPSDEQLKSGTASVVCLLNNFYPREAKVQWKVDNALQSGNSQESVTEQDSKDSTYSLSSTLTLSKADYEKHKVYACEVTHQGLSSPVTKSFNRGEC
notes: IgG1, kappa; also called antibody #37
B17: VG9B143 (antibody, human IgG1, lambda, V domains shown)
VH: EVQLVESGGGLVQPGGSLRLSCAASGFTFSTYGMNWVRQAPGKGLEWISYISTSSYTIYYSDSVKGRFTVSRDNAKNSLYLQMNSLRDEDTAVYYCAREGDWWYFDLWGRGTTVTVSS
VL: QSALTQPASVSGSPGQSITISCTGTSSDVGGYNYVSWYQQHPGKAPKLMIYEVSNRPSGVSYRFSGSKSGNTASLTISGLQAEDEADYYCSSYTSSSTLVFGGGTKLTVLG
notes: IgG1, lambda; also called antibody #31
B18: VG9B88 (antibody, human IgG1, kappa, V domains shown)
VH: EVQLVESGGGLVKPGGSLRLSCAVSGFTFSSYTMNWVRQAPGKGLEWVSSISTSSSYIDYADSVKGRFTISRDNAKKSLYLQMNSLRAEDTAVYYCARDGDMVAPIKGSFDYWGQGTLVTVSS
VL: EIVLTQSPLSLPVTPGEPASISCRSSQSLLNSDDGNTYLDWYLQKPGQSPQLLIYTLSYRASGVPDRFSGSGSGTDFTLKISRVEAEDVGVYYCMQRIEFPITFGQGTRLEIKR
notes: IgG1, kappa; also called antibody #35
B19: VG9B430 (antibody, human IgG1, kappa, V domains shown)
VH: EVQLLESGGGLVKPGGSLRLSCSASGFTFSSYDMNWVRQAPGKGLEWVSSISSSSSYIYYADSVKGRFTISRDNAKNSLYLQMNSLRAEDTAVYHCARDVGVTTDYYYYGMDVWGQGTMVTVSS
VL: EIVLTQSPGTLSLSPGDRATLSCRASQSVASSYLAWYQQKPGQSPRLLIYGASSRATGIPDRFSGSGSGTDFTLTISRLEPEDFAVYYCQQYGSSPPYTFGQGTKLEIKR
notes: IgG1, kappa; also called antibody #19

From patent US20220125947A1 (published 2022) come the findings set out here.

The first assay deals with T1, γδ T cell receptor on human γδ T cells (human).
T1 construct: whole, on cells; Target is the γδ TCR on a mixed population of human γδ T cells; also called AG000003021 (γδ T cells)
Kind of assay: flow cytometry DRC binding 37 C, human γδ T cells. As to the method:
(§1) Binding of antibodies to human γδ T cells or SKW cell lines expressing Vγ9/Vδ2, Vγ9/Vδ2 or Vγ5/Vδ2 was carried out by flow cytometry. Briefly, the cells were centrifuged at 300×g for 5 minutes and the pellet was resuspended in 34 ml fresh media (in RPMI+10% FBS). 50 μL of the cells were then plated (44K cells/well) into assay plates. Samples were incubated for one hour at 37° C. in tissue culture (TC) incubator followed by wash steps by adding 100 μl FACS staining buffer. Secondary detention antibodies (A647 conjugated anti-human IgG Fc specific antibody (2 μg/mL) along with AF488 anti mouse CD3, clone OKT3 at 1 ug/mL) were added at 50 μL/well to appropriate wells according to the plate map. After incubating for 60 minutes at 37° C. in the TC incubator, cells were again washed as described above. This is followed by resuspension in 20 μL/well running buffer containing 1:1000 dilution of Sytox blue dead cell stain and the plates were run on iQue Screener.
(§2) Gating and data analysis: Human anti-human Vγ9 antibody (VG9B2 mAb at 10 nM) was used to mark the gating of positive population. All cells were first gated for singlets on SCS-A vs. SCS-H dot plot, live/dead followed by CD3 positive population, and this subset of CD3 positive population was gated for Vγ9 positive binding using positive control mAb. Cells were also assessed for cell binding of control mAbs by RL1 (A647) Geomeans from the live cell population. Advanced metrics were used and normalization metrics were chosen to calculate fold over background wells containing secondary antibody alone (designated as ‘background’ within ForeCyt settings).
On the technique in general: In flow cytometry, cells or beads pass a laser one at a time.
With B1, the “Max. Activity” value is 1970 fold over background.
For B2, the “Max. Activity” value was found to be 1250 fold over background.
Regarding B3, the “Max. Activity” value came out at 1460 fold over background.
Same read-out and setting: the value for B4 was 1420 fold over background.
The same measure, in the same setting: to B5 belongs 1560 fold over background; to B6, 1020 fold over background; to B7, 772 fold over background.

For a further assay, the target named is T2, γδ T cell receptor on human γδ T cells (human).
T2 construct: also called AG000003021 (γδ T cells)
The experiment in a line: flow cytometry, dose-response binding at 37 C on human γδ T cells. The procedure:
as §1, §2
Regarding B8, the “Max. Activity” value is 2620 fold over background.
On the same count and under the same terms, the value for B9 was 2690 fold over background.
The same measure, in the same setting: the value for B10 was 2550 fold over background; that for B11 was 2700 fold over background; that for B12 was 2980 fold over background.
Still for that read-out and setting: to B13 belongs 2610 fold over background; to B14, 2690 fold over background; to B15, 2630 fold over background.
As to B16, the “Max. Activity” value came to 2470 fold over background.
The same measure, in the same setting: the value for B17 was 2630 fold over background; that for B18 was 2560 fold over background; that for B19 was 2970 fold over background.
